Results from US20170065702A1 (CANGENE, published 2017).
Where a chain is given by its changes, count along the chain named.

B1: CAN30G5 (antibody, V domains shown)
VH: EVQLVESGGGLVQPKGSLKLSCAASGFAFNSYAMHWVCQAPGKGLEWVARIRIKSGNYATSYAGSVTDRFTVSRDDSQNLFYLQMNNLKTEDTAMYYCVREWEGAMDYWGQGTSVTVSS
VL: DIVLTQSPLSLPVSLGDQASISCRSSQSLVHSNGNTYLHWYLQKPGQSPNLLIYKVSNRFSGVPDRFSGSGSGTDFTLKISRVEAEDLGVYFCSQSTHVPWTFGGGTKLEIK
B2: CAN40G1 (antibody, V domains shown)
VH: EVQLQQSGPELVKPGASVKISCRTSGYTFTEYTIHWVKQSRGKSLEWIGGINPNHGGTLYNQKFKVKATLTVDKSSSTAYMELRSLTSEDSAVYYCARFTYDYWGQGTTLTVSS
VL: DIVLTQSPASLAVSLGQRASISCKASQSVDHDGDSYMNWYQQKPGQPPKLLIYATSNLESGIPARFSGSGSGTDFTLNIHPVEEEDAATYYCQQSYEVPLTFGAGTKLELK
B3: CAN54G2 (antibody, V domains shown)
VH: QVQLQQSGTELVRPGTSVKISCKASGYDFTNFWLGWIKQRPGHGLEWIGDIYPGGDNTYYNEKFKGKVTLTADKSSNTAYMQFSSLTSEDSAVYFCFMILYTLDYWGQGTSVTVSS
VL: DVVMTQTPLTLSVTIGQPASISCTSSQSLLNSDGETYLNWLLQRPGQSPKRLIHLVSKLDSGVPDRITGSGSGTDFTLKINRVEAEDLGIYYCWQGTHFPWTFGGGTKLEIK
B4: CAN30G1 (antibody, V domains shown)
VH: QIQLVQSGPELKKPGETVKISCKASGYTFTNYGMNWVKQAPGKGLKWMGWINTYTGKPTYVDDFKGRFAFSLETSANTAYLQINNLKNEDTATYFCESGGYDEDYWGQGTTLTVSS
VL: ENVLTQSPAIMSASPGEKVTMTCSASSSVTYMHWYQQKSSTSPKLWIYDTSKLASGVPGRFSGSGSGNSYSLTISSMEAEDVATYYCFQGSGYPYTFGGGTKLEIK
B5: CAN30G3 (antibody, V domains shown)
VH: QVQLKESGPGLVAPSQSLSITCTVSGFSLTDYGITWIRQPPGKGLEWLGVIWGGGSAYYNLVLKSRLSISKDNSKSQVFLKMNSLQTDDTAMYYCAKHRTLITTAMDYWGQGISVTVSS
VL: DVLMTQTPLSLPVSLGDQASISCRSSQNIVHSNGNTYLEWYLQKSGQSPKLLIYKVSNRFSGVPDRFSGSGSGTDFTLKISRVEAEDLGVYYCFQGSHFPWTFGGGTKLEIK
B6: CAN30G4 (antibody, V domains shown)
VH: EVKLVESGGGLVKSGGSLKLSCAVSGFTFSTYAMSWVRQIPEKRLEWVATISNGGSYIYYSDSVKGRFTISRDNAKNTLYLQMSSLRSEDTAMYYCARHRESYRYDWFAYWGQGTLVTVSA
VL: B5 VL with N33D, S45P, V56F, F99V, W101P, G105A, I111L

Experiments:
MARV Musoke GPe[change] = MARV Musoke GPe[change] (Marburg virus, Musoke strain, UniProt P35253 19-636); assay: cross reactivity with GPeΔmuc, summary table
MARV Angola GPe[change] = MARV Angola GPe[change] (Marburg virus, Angola strain, UniProt Q1PD50 19-636); assay: cross reactivity with GPeΔmuc, summary table

| Binder | binding result (MARV Musoke GPe[change]) | binding result (MARV Angola GPe[change]) |
| --- | --- | --- |
| B1 | binds | binds |
| B2 | binds | binds |
| B3 | binds | binds |
| B4 | binds | binds |
| B5 | binds | binds |
| B6 | binds | binds |
